One series concerns the target T1, F508del-2PT-NBD1 (Homo sapiens, UniProt P13569, A534P/DEL508-508/I539T/S492P/V470M).
T1 construct: His6-SUMO (N, cleaved yes); made in house; host or cells: Escherichia coli BL21(DE3) pLysS
Put plainly: NBD1 ELISA dose-response, nanobody binding to immobilized F508del-2PT-NBD1. The note with it: for effect of F508del mutation on binding: F508del-2PT-NBD1 versus 2PT-NBD1. The protocol: (§1) For dose-response assays, Nunc MaxiSorp 96-well plates (ThermoScientific), were coated with 5 μg/ml NeutrAvidin Biotin-Binding protein (ThermoScientific) overnight at 4° C. and blocked 2 h at room temperature (RT) with 2% milk in phosphate-buffered saline (PBS). Each new reagent addition was preceded by three washes with 200 μl of NBD1 buffer (20 mM HEPES pH 7.5, 150 mM NaCl, and 10% (w/v) glycerol, 10% (w/v) ethylene glycol, 2 mM ATP, 3 mM MgCl2). Then, biotinylated purified NBD1 proteins at 5 μg/ml were immobilized 30 min at RT followed by 1 h RT incubation with 100 μl various concentrations (0-20 μg/ml) of purified nanobodies. Signal detection was followed using His-tag specific antibody (Invitrogen, catalogue number: MA1-135, 1:3000 dilution) to detect the nanobodies and secondary antibody anti-mouse coupled to horse radish peroxidase (HRP) (Millipore, catalogue number: AP308P, 1:5000 dilution). 50 μl of 1-Step UltraTMB-ELISA (ThermoScientific) was used as a substrate for the peroxidase and intensity of the reaction was proportional to absorbance measured at 450 nm with SynergyMx (BioTek) after addition of 50 μl H2SO4 at 1M.
Affinity constants (KD) and thermodynamic parameters from ITC experiments were determined using one-site binding model with MicroCal Origin 7.0 software (Origin Lab Corp.). Dose response ELISA curves of each Nb binding to either isolated NBD1 or purified FL-CFTR were fitted using the sigmoidal dose-response equation from GraphPad Prism 3. DSC data were analyzed with the MicroCal Origin 7.0 software (Origin Lab Corp.), from which the unfolding temperature (Tm) was obtained.
On the technique in general: In an ELISA, binding on a coated surface is turned into a signal by an enzyme label.

The target in the next series is T2, 2PT-F508del-CFTR (Homo sapiens, UniProt P13569, A534P/DEL508-508/I539T/S492P).
T2 construct: expressed in transfected cells
T2 sequence (P13569 with tags, fused parts or gaps S492P/DEL508-508/A534P/I539T): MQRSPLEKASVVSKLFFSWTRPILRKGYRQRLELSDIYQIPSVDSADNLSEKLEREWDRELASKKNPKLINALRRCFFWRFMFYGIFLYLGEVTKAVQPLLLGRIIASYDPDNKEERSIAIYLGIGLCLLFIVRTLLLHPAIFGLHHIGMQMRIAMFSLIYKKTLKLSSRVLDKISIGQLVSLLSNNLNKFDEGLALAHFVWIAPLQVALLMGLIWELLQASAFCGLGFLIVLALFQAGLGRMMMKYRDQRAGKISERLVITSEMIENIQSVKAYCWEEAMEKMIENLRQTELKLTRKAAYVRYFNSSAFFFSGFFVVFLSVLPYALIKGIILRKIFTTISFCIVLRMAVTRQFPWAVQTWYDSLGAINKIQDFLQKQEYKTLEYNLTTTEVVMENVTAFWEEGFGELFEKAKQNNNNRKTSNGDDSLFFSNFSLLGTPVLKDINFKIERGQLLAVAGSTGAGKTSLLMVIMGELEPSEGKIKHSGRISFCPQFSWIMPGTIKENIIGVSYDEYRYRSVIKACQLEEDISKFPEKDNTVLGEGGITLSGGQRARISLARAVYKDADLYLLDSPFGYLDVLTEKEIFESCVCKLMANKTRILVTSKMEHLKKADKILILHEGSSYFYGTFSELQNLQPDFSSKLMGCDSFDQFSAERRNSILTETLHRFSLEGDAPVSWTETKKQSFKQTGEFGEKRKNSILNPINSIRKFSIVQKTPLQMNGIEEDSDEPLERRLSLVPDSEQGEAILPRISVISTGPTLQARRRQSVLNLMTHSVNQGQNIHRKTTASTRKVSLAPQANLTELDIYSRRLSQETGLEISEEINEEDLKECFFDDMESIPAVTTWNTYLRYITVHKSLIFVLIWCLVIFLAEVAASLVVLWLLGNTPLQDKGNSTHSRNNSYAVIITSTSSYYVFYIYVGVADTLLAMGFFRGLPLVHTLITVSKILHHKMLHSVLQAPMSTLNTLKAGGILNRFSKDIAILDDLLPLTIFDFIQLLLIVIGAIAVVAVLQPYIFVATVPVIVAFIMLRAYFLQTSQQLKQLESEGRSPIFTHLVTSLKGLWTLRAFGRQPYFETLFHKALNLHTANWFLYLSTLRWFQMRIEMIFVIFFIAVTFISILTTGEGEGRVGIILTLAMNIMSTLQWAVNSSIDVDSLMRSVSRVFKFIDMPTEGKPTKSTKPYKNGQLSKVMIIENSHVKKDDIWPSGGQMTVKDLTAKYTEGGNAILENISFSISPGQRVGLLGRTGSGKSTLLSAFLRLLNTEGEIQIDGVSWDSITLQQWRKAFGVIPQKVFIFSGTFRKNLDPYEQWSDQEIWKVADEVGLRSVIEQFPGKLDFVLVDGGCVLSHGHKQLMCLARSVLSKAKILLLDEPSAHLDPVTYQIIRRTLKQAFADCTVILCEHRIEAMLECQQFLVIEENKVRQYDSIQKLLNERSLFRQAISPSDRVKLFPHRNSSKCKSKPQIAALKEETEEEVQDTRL
Put plainly: Flow cytometry on BHK-21 cells expressing 2PT-F508del-CFTR. Format: cell-based. As to the method:
Parental BHK-21 cells (ATCC; CCL-10) and cells stably overexpressing human wt-CFTR^[43,44,47] or 2PT-F508del-CFTR, as described above, were permeabilized with 0.01% n-Dodecyl-β-D-Maltopyranoside β-DDM—Inalco) at least for 2 h on ice. In the meantime, cells were incubated with 50 μg/ml nanobodies and DRAQ7 (0.3 μM—Biostatus) to monitor the permeabilization state. Nanobody binding was detected by using His-tag specific antibody (Invitrogen, catalogue number MA1-135, 1 μg/ml) or Myc-tag specific antibody (Invitrogen, catalogue number 13-2500, 2 μg/ml) and then anti-mouse-Alexa Fluor 488 (Invitrogen, catalogue number A11001, 1.3 μg/ml) at least for 30 min on ice. Cells were washed one time between each step by centrifugation (200×g for 5 min at 4° C.). All incubations (100 μl) and washes (1.5 ml) were performed in PBS with 6% fetal bovine serum (FBS) and 0.01%13-DDM on ice. Cells fluorescence was measured with Gallios Flow Cytometer (Beckman Coulter). Data were analyzed with Kaluza software.
In general terms: A flow cytometer gives signals particle by particle.

For the next series, the target named is wt-CFTR (Homo sapiens, UniProt P13569). Put plainly: Thermal inactivation of CFTR (residual ATPase activity after heat challenge). The arrangement: His10-SUMO* (N); FLAG; EGFP (C); made in house; host or cells: HEK 293 cell line D165. Format: biochemical. The note with it: residual ATPase activity after 30 min heat challenge. The protocol:
To determine effect of nanobodies on functional stability, aliquots of purified wt-CFTR (25 nM) were preincubated 1 h on ice with 1 μM nanobody (or 15 μM, in the case of G3a). Substrate α-[32P]-ATP (2 μl) was then added for measurement of ATPase activity as previously described^[48]. Then, nanobody protection against thermal denaturation was determined after a 30 min thermal challenge of the protein complexes followed by an assay of residual ATPase.

The next series concerns the target 2PT-NBD1-RE. Put plainly: NBD1 ELISA dose-response, binding to 2PT-NBD1-RE. The arrangement: species or system human. The note with it: for binding to 2PT-NBD1-RE: construct containing the regulatory extension.
2PT-NBD1-RE, sequence (P13569 387-678 S492P/A534P/I539T): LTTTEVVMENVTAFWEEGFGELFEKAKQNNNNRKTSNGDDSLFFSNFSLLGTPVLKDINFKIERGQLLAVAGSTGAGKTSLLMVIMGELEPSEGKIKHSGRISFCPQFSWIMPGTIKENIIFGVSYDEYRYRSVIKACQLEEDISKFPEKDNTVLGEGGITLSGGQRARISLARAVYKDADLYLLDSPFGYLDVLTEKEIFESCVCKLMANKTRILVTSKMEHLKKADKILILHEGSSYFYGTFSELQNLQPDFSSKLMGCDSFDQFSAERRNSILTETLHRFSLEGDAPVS
From the text: Human ΔRI-NBD1 (residues 387-646, A405-436; SEQ ID NO:59) construct was obtained from Arizona State University Plasmid Repository (clone id: 287374), 2PT-NBD1 mutants (residues 387-646 containing the mutations S492P, A534P, I539T; SEQ ID NO:58), 2PT-NBD1-RE (2PT-NBD1 with residues 387-678) were constructed using WT-NBD1 construct from ASU (clone id: 287401). Mutations were introduced by PCR using PfuUltra high-fidelity DNA polymerase from Agilent (catalogue number: 600382) and sequences were confirmed by automated DNA sequencing (UNC-CH Genome Analysis Facility). Proteins were expressed as N-terminal, His6-SUMO fusion proteins in Escherichia coli (BL21(DE3) pLysS cells, Millipore) as described in [5,11] with the following modifications. Cells were lysed using a French press and recombinant proteins were purified by nickel ion affinity chromatography (HisTrap HP, 1 ml—GE Healthcare). The His6-SUMO tag was removed using Ulp1 protease at 1/100 weight/weight ratio during 20 min on ice. […] Protein concentration was determined using Coomassie Plus (Bradford) Assay Kit (Thermo Scientific).
as §1

Series [1] has as its target T3, stab-CFTR: 2PT/ΔRI/R1048A_1172X (Homo sapiens, UniProt P13569, A534P/DEL405-436/I539T/R1048A/S492P).
T3 construct: made in house; host or cells: BHK-21 cells (ATCC CCL-10), pNUT vector
Put plainly: NanoDSF thermostability of stab-CFTR. The note with it: versus stab-CFTR alone. Format: binding. As to the method: Purified stabilized human CFTR (stab-CFTR: 2PT/ΔRI/R1048A_1172X) was concentrated to 0.5 mg/ml and mixed with 0.1 mg/ml nanobody (^˜[…]) and capillaries were loaded with a volume of 10 The capillaries were placed into trays of Prometheus NT.48 (Nanotemper) and subjected to the fluorescence analysis. The emission of fluorescent radiation with the wavelengths of 330 nm and 350 nm was measured with the temperature changes from 25 to 85° C., with the rate of 1° C. min-1. The first derivative of 350 nm fluorescence was used to determine the melting temperature of the proteins.

T1 sequence (P13569 with tags, fused parts or gaps V470M/S492P/DEL508-508/A534P/I539T limits assumed): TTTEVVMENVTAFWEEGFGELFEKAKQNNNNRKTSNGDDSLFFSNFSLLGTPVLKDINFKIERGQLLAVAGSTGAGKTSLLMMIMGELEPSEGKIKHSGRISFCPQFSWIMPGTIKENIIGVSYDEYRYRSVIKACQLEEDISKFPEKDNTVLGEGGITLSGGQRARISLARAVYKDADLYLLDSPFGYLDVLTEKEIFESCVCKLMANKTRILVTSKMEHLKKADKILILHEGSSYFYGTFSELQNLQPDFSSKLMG
wt-CFTR, sequence (P13569 whole entry): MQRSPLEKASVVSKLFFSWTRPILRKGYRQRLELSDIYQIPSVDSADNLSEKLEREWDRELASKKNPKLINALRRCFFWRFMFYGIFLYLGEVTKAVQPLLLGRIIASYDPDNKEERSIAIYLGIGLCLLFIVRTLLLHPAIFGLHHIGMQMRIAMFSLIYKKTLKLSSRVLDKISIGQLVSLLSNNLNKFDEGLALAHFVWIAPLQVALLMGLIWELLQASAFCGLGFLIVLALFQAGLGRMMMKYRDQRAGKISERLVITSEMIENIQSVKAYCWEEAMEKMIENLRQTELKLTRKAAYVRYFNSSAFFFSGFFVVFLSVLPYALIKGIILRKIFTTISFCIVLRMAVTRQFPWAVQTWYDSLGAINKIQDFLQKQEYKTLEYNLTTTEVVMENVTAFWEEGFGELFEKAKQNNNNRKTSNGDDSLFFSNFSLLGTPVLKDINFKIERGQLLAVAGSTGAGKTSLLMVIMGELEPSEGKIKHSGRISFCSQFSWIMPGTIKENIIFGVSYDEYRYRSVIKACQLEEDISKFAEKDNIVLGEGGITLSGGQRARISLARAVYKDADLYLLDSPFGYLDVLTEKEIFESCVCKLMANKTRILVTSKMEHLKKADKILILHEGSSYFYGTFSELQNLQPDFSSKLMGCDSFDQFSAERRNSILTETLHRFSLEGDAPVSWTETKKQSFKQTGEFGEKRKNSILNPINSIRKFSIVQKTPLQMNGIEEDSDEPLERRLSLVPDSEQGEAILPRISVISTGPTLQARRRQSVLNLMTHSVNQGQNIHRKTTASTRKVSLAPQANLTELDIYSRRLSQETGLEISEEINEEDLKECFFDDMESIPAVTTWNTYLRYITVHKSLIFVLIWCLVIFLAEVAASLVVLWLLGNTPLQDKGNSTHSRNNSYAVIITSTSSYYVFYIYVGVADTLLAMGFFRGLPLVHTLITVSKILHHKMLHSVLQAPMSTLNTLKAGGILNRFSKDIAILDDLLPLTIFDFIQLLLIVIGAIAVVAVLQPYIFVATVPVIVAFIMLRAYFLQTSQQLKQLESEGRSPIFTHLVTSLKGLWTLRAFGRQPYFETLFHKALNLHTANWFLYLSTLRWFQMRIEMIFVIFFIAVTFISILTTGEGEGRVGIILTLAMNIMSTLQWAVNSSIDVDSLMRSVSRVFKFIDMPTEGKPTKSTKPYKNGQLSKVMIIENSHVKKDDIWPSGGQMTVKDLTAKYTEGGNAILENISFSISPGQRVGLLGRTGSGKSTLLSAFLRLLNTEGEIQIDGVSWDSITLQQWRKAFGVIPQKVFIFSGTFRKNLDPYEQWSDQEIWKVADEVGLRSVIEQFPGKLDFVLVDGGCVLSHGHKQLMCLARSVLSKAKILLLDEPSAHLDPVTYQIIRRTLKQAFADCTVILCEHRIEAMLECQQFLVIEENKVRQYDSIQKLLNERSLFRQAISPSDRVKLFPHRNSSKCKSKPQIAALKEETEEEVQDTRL
T3 sequence (P13569 with tags, fused parts or gaps DEL405-436/S492P/A534P/I539T/R1048A limits assumed): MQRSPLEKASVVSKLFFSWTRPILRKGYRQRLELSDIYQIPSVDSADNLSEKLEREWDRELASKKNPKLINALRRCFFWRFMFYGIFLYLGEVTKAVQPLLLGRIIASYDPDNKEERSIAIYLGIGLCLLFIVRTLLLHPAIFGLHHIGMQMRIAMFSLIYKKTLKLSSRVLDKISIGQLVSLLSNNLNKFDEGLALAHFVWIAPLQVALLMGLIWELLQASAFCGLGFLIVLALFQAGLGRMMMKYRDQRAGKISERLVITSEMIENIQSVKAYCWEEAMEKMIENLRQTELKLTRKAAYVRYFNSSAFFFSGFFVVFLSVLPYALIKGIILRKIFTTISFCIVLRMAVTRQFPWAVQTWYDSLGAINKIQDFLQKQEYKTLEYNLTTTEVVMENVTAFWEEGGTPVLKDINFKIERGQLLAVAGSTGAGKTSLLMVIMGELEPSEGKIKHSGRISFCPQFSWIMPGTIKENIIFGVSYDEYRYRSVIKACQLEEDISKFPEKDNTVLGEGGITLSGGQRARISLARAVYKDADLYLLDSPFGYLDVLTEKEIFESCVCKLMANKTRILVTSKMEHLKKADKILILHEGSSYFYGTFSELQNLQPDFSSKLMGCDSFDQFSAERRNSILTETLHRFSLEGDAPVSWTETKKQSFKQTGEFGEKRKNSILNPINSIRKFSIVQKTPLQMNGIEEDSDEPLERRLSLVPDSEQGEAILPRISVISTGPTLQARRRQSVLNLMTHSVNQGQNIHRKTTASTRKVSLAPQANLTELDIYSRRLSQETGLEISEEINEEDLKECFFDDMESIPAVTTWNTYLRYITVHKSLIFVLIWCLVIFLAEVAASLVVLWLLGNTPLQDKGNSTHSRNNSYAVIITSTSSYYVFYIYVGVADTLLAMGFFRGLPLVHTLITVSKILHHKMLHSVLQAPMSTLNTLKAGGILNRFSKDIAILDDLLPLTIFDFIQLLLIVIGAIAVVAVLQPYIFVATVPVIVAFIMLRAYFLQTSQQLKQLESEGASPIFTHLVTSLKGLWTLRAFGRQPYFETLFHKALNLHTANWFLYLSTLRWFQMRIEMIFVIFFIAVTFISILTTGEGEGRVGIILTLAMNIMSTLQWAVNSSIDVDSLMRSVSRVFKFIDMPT

B1: G3a: non-stabilizing nanobody, SEQ ID NO:50, recognizes the structurally diverse region of NBD1 (protein)
VHH: QVQLQESGGGLVQAGGSLRLSCTASGRAFSWYVMGWFRQAPGKEREFVATVSGNGSRRDYADSVKGRFTISRDNAKNTVYLQMNSLKPEDTAVYYCAASSTYYYTDPEKYDYWGQGTQVTVSS
modifications: G3a Nanobody
With B1, the “EC50 of binding to F508del-2PT-NBD1” value with F508del-2PT-NBD1 (immobilized F508del-2PT-NBD1) is given as “weaker binding potency”. Moreover, in the series with 2PT-F508del-CFTR, the “binding to 2PT-F508del expressing cells” value is on record as “bind efficiently”. The “shift of CFTR thermal inactivation” value with wt-CFTR was 3.1 °C.

B2: D12: NBD1-specific CFTR-stabilizing nanobody, SEQ ID NO:2, binds epitope 1 (protein)
VHH: QVQLQESGGGLVQAGSSLRLACAATGSIRSINNMGWYRQAPGKQRGMVAIITRVGNTDYADSVKGRFTISRDNAKNTVYLQMNSLKPEDTATYYCHAEITEQSRPFYLTDDYWGQGTQVTVSS
modifications: D12 Nanobody amino acid sequence
As for B2, in the series with F508del-2PT-NBD1, the “effect of F508del mutation on binding” value is listed as “not affected”. Further, at 2PT-NBD1-RE, the “apparent EC50 on 2PT-NBD1-RE compared to 2PT-NBD1” value was “decrease in apparent EC50” and the “binding to 2PT-NBD1-RE” value is given as “high-affinity binding”. Besides, the “shift of CFTR thermal inactivation” value with wt-CFTR was 7 °C.

B3: T2a: NBD1-specific CFTR-stabilizing nanobody, SEQ ID NO:3, binds epitope 1 (protein)
VHH: QVQLQESGGGLVQAGGSLRLSCAASGSIFRIDAMGWYRQAPGKQRELVAHSTSGGSTDYADSVKGRFTISRDNAKNTVYLQMNSLKPEDTAVYYCNADVRTRWYASNNYWGQGTQVTVSS
modifications: T2a Nanobody amino acid sequence
In the case of B3, the “effect of F508del mutation on binding” value with F508del-2PT-NBD1 is recorded as “not affected”. At 2PT-NBD1-RE, the “apparent EC50 on 2PT-NBD1-RE compared to 2PT-NBD1” value is given as “decrease in apparent EC50” and the “binding to 2PT-NBD1-RE” value is “high-affinity binding”. Besides, in the series with 2PT-F508del-CFTR, the “binding to 2PT-F508del expressing cells” value is reported as “bind efficiently”. Further, in series [1], the “thermostabilization of stab-CFTR (Tm increase)” value came out at 8 °C.

B4: T8: nanobody, SEQ ID NO:7, binds epitope 2 including F508, stabilizes WT CFTR but not F508del (protein)
VHH: QVQLQESGGGLVQPGGSLRLSCAASGSTSSINAMGWYRQAPGKQREPVAISSSGGDTRYAEPVKGRFTISRDNAQNKVYLQMNSLKPEDTAVYYCWLNWGRTSVNSWGQGTQVTVSS
modifications: T8 Nanobody amino acid sequence
In the case of B4, the “effect of F508del mutation on binding” value with F508del-2PT-NBD1 was “drastically affected”. Further, the “binding to 2PT-F508del expressing cells” value with 2PT-F508del-CFTR is given as “not able to bind”.

B5: T27: NBD1-specific CFTR-stabilizing nanobody, SEQ ID NO:4, binds epitope 1 (protein)
VHH: QVQLQESGGGLEQPGGSLRLSCATSGVIFGINAMGWYRQAPGKQRELVATFTSGGSTNYADFVEGRFTISRDNAKNTVYLQMNGLRPEDTAVYYCHATVVVSRYGLTYDYWGQGTQVTVSS
modifications: T27 Nanobody amino acid sequence
As for B5, in the series with F508del-2PT-NBD1, the “effect of F508del mutation on binding” value was “not affected”. In addition, at 2PT-NBD1-RE, the “apparent EC50 on 2PT-NBD1-RE compared to 2PT-NBD1” value was “decrease in apparent EC50” and the “binding to 2PT-NBD1-RE” value is recorded as “high-affinity binding”.

(Values after patent US20220289837A1, “Cystic Fibrosis Transmembrane Conductance Regulator Stabilizing Agents” (VIB VZW, priority 2019, published 2022).)
